Paper PMC10398996
Where two headings read alike, the source gives them in different places.

Experiments:
[1] = molecular target: APLP1 F1 (APLP1 with a C-terminal FKBP tag and HA tag); experiment: native gel or EMSA; Blue Native PAGE (4–15% Tris–HCl gel, overnight, 4 °C) of membranes of transiently transfected N2a cells solubilised with n-dodecyl-β-D-maltoside; no dimerizer (untreated or ethanol vehicle); Western blot; dimer as percent of total signal
[2] = molecular target: APLP2 F1 (APLP2-763 with a C-terminal FKBP tag and HA tag); experiment: as above
[3] = as above
[4] = native gel or EMSA; as a1, but the cells were treated with 100 nM of the rapamycin analogue AP20187 (dimerizer) overnight, added 4 h post-transfection
[5] = molecular target: APP F1 (APP695 with a C-terminal FKBP tag and HA tag); experiment: native gel or EMSA; Blue Native PAGE (4–15% Tris–HCl gel, overnight, 4 °C) of membranes of transiently transfected N2a cells solubilised with n-dodecyl-β-D-maltoside; no dimerizer (untreated or ethanol vehicle); Western blot; dimer as percent of total signal
[6] = molecular target: endogenous human APP (human (endogenous in middle frontal gyrus)); experiment: native gel or EMSA; Blue Native PAGE, semi-denaturing conditions, of human middle frontal gyrus (controls n = 5, AD n = 6); Western blot with Y188
[7] = molecular target: endogenous mouse APLP1 (mouse (endogenous in C57BL/6 cortex and mouse cells)); experiment: native gel or EMSA; Blue Native PAGE of membranes of homogenised mouse cortices (E14 to 12 months; WT, non-transgenic and J20 mice; KO cortices as antibody controls), n-dodecyl-β-D-maltoside; Western blot with Y188, 57 or D2-II
[8] = molecular target: endogenous mouse APP (mouse (endogenous in C57BL/6 cortex and mouse cells)); experiment: as above
[9] = molecular target: endogenous mouse APP (mouse (endogenous in C57BL/6 cortex and mouse cells)); experiment: as above; remark: listed apart in the source
[10] = molecular target: hAPP with the FAD mutations Swedish (K670N/M671L) and Indiana (V717F), transgenic in J20 mice (human) (UniProt P05067); experiment: as above
[11] = molecular target: T1, endogenous mouse APLP2 (mouse (endogenous in C57BL/6 cortex and mouse cells)), Q06335; experiment: as above; settings: remark: other sources report otherwise
T1 chain: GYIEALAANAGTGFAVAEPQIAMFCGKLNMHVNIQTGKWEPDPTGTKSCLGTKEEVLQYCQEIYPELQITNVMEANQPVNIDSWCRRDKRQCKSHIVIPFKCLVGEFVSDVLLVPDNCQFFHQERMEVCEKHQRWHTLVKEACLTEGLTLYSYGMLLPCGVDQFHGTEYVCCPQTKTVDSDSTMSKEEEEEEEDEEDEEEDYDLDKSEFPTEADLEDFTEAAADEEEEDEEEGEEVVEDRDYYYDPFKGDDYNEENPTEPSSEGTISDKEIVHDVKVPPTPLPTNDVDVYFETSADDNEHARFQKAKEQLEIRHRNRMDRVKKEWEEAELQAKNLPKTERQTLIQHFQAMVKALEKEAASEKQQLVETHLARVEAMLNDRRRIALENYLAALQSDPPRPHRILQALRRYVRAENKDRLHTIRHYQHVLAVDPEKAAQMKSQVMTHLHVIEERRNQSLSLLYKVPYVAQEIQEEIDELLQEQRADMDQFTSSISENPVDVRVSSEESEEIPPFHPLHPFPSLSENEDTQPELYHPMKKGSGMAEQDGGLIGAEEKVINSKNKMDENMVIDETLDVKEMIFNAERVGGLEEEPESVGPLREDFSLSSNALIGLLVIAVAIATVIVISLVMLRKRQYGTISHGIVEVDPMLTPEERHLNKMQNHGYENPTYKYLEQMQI

APLP1 F1 (APLP1 with a C-terminal FKBP tag and HA tag)
percent dimer [1]: 31.8%

APLP2 F1 (APLP2-763 with a C-terminal FKBP tag and HA tag)
percent dimer [2]: 16.2%
percent in the HMW complex [3]: < 20%, in the high molecular weight (HMW) complex
percent in the HMW complex with AP20187 [4]: > 60% of APLP2 in the HMW complex

APP F1 (APP695 with a C-terminal FKBP tag and HA tag)
percent dimer [5]: 22.2%

endogenous human APP (natural protein)
percent dimer (non-demented controls) [6]: 21.8%

endogenous mouse APLP1 (natural protein)
percent dimer [7]: 45.6%

endogenous mouse APP (natural protein)
percent dimer [8]: 48.9%
percent dimer (1 to 12 months old mice) [8]: 49%
percent dimer (4 months) [8]: 61.3%
percent dimer (12 months) [8]: 54.8%
percent dimer [9]: 45%

hAPP with the FAD mutations Swedish (K670N/M671L) and Indiana (V717F), transgenic in J20 mice (from UniProt P05067 18-770) (natural protein)
percent dimer (4 months) [10]: 58.1%
percent dimer (12 months) [10]: 58%

B1: endogenous mouse APLP2, Q06335 32-707 (natural protein)
chain: GYIEALAANAGTGFAVAEPQIAMFCGKLNMHVNIQTGKWEPDPTGTKSCLGTKEEVLQYCQEIYPELQITNVMEANQPVNIDSWCRRDKRQCKSHIVIPFKCLVGEFVSDVLLVPDNCQFFHQERMEVCEKHQRWHTLVKEACLTEGLTLYSYGMLLPCGVDQFHGTEYVCCPQTKTVDSDSTMSKEEEEEEEDEEDEEEDYDLDKSEFPTEADLEDFTEAAADEEEEDEEEGEEVVEDRDYYYDPFKGDDYNEENPTEPSSEGTISDKEIVHDVKVPPTPLPTNDVDVYFETSADDNEHARFQKAKEQLEIRHRNRMDRVKKEWEEAELQAKNLPKTERQTLIQHFQAMVKALEKEAASEKQQLVETHLARVEAMLNDRRRIALENYLAALQSDPPRPHRILQALRRYVRAENKDRLHTIRHYQHVLAVDPEKAAQMKSQVMTHLHVIEERRNQSLSLLYKVPYVAQEIQEEIDELLQEQRADMDQFTSSISENPVDVRVSSEESEEIPPFHPLHPFPSLSENEDTQPELYHPMKKGSGMAEQDGGLIGAEEKVINSKNKMDENMVIDETLDVKEMIFNAERVGGLEEEPESVGPLREDFSLSSNALIGLLVIAVAIATVIVISLVMLRKRQYGTISHGIVEVDPMLTPEERHLNKMQNHGYENPTYKYLEQMQI
percent dimer [11]: 26.1%
